The DeepSol protein solubility set

Experiment: soluble on expression in E. coli; label from the status in PepcDB or PDB records

Row | Sequence | soluble on expression in E. coli
1 | MGHHHHHHSHMFDAAFDPVLTVNSGDSVTVECVSGGVEVMPPAESPYAIPSALQAIHDSNPPRIGPHILTGPIAIAGAEPGDILEVRIEAIEPNNDWGYCAVRPLAGTLPEDFPERYVSHIAVDAQRGVCKPEWGPELPLAPFFGTMGVAPPAKYGRLSSREPREHGGNMDNKELVAGSTLYLPVWVPGANFSVGDGHGRQGDGEVCVNALEMGLTGTFTFVLHKKANGAADIAPFAWPRAETPTHYVLMGFHEDLDLAMKQALRQTIDFITARSNLTRVQAYQFCSLAVDFRVTQTVNGEKGVHALLSKGLLF | not soluble
2 | MGHHHHHHSHMGLYHVGQAGLELLTSSDPPTSASQNAEITGVSHRAQSKAHNLQRKLRLSHKSSPPCTYTQHAGGVDSHPLTQDMCVIVNVIARPFDKCNCDIYLGLASELFVVSWVQLTVPYHWIQTLGNVILFCLDTAHRGHCDIAGHCT | not soluble
3 | MGHHHHHHSHMHGPKPTVQEIVLELCPCNEIEPVDLVCHEQLGDSDDEIDEPDHAVNHHQHQLLARRDEQQRHTIQCTCCKCNNLLQLVVEASRENLRKLELLFMDSLNFVCPWCATETQ | not soluble
4 | MGHHHHHHSHMILEIRTKNFIFRTKHKLDFTPIGCDAKGRIVLGYTEAELCTRGSGYQFIHAADMLYCAESHIRMIKTGESGMIVFRLLTKNNRWTWVQSNARLLYKNGRPDYIIVTQRPLTDEEGTEHLRKRNTKLPFMF | soluble
5 | MGHHHHHHSHMKDIGHLQHLAQRLQWNRRAVNICGMHGWTKDLSPHSRMPSMLEHVKHYMSC | not soluble
6 | MGHHHHHHSHMKNYKAIGKIGEGTFSEVMKMQSLRDGNYYACKQMKQRFESIEQVNNLREIQALRRLNPHPNILMLHEVVFDRKSGSLALICELMDMNIYELIRGRRYPLSEKKIMHYMYQLCKSLDHIHRNGIFHRDVKPENILIKQDVLKLGDFGSCRSVYSKQPYTEYISTRWYRAPECLLTDGFYTYKMDLWSAGCVFYEIASLQPLFPGVNELDQISKIHDVIGTPAQKILTKFKQSRAMNFDFPFKKGSGIPLLTTNLSPQCLSLLHAMVAYDPDERIAAHQALQHPYFQEQRKTEKRAL | not soluble
7 | MGHHHHHHSHMKNYYYFLGQGLTLSPRLECSSTISAHCNLHLLGSSNSPVAASPVAGTTGTCHHDWLIFVFLVETGFHHIGQTGLEFLTSGDPPTLASKSAGITGVSHCAWPTFLLNDMRHSFNKNLVIIFYVPAIS | not soluble
8 | MGHHHHHHSHMKRSLSENSARSTADWAWEAVNPELAPVMKTVDTGQIPHSVSRPLRSQDSVFNSIQSNTGRSQGGWSYRDGNKNTSLKTWNKNDFKPQCKRTNLVANDGKNSCPVSSGAQQQKQLRIPEPPNLSRNKETELLRQTHSSKISGCTMRGLDKNSALQTLKPNFQQNQYKKQMLDDIPEDNTLKETSLYQLQFKEKASSLRIISAVIESMKYWREHAQKTVLLFEVLAVLDSAVTPGPYYSKTFLMRDGKNTLPCVFYEIDRELPRLIRGRVHRCVGNYDQKKNIFQCVSVRPASVSEQKTFQAFVKIADVEMQYYINVMNET | not soluble
9 | MGHHHHHHSHMKVQGAGQLRLSIDAQDRVLLLHIIEGKGLISKQPGTCDPYVKISLIPEDSRLRHQKTQTVPDCRDPAFHEHFFFPVQEEDDQKRLLVTVWNRASQSRQSGLIGCMSFGVKSLLTPDKEISGWYYLLGEHLGRTKHLKVARRRL | soluble
10 | MGHHHHHHSHMLAWHVLMGNQVIWKSRDVDLVQSAFEVLRTMLPVGCVRIIPYSSQYEEAYRCNFLGLSPHVQIPPHVLSSEFAVIVEVHAAARSTLHPVGCEDDQSLSKYEFVVTSGSPVAADRVGPTILNKIEAALTNQNLSVDVVDQCLVCLKEEWMNKVKVLFKFTKVDSRPKEDTQKLLSILGASEEDNVKLLKFWMTGLSKTYKSHLMSTVRSPTASESRN | not soluble
11 | MGHHHHHHSHMLDVYACHCTLCQKWSGGIAMYLEACGQPQLAPLSPEPPYFSSSSRGERYFCSGCGCPLWFRLTDTDRYFIPWTLLELNEVDRRRLILAAEIYTETQPAFWRLTGQYARLSGKEVEEMDSPCQLAH | not soluble
12 | MGHHHHHHSHMLEILYQDEWLVAVNKPSGWLVHRSWLDRDEKVVVMQTVRDQIGQHVFTAHRLDRPTSGVLLMGLSSEAGRLLAQQFEQHQIQKRYHAIVRGWLMEEAVLDYPLVEELDKIADKFAREDKGPQPAVTHYRGLATVEMPVATGRYPTTRYGLVELEPKTGRKHQLRRHLAHLRHPIIGDSKHGDLRQNRSGAEHFGLQRLMLHASQLSLTHPFTGEPLTIHAGLDDTWMQALSQFGWRGLLPENERVEFSAPSGQDGEISS | soluble
13 | MGHHHHHHSHMPVIQTESEHKPPVNGSYFAHVNPADGGCLLEKYSEKCHDFQCALLANLFASEGQPGKVIEVKAKRRTGPLNFVTCMRETLEKHYGNKPIGMGGTFIIQKGKVKSHIMPAEFSSCPLNSDEEVNKWLHFYEMKAPLVCLPVFVSRDPGFDLRLEHTHFFSRHGEGGHYHYDTTPDIVEYLGYFLPAEFLYRIGQPKETHSIGRD | not soluble
14 | MGHHHHHHSHMQDGFLTVSIIDATNNRPIQNAVVNIYSMSNGSQSSSTLYQNLRSNESGQVTGLVLPAPDVDYSLQPSDVRPYSQYIVEAIADGYETVVIEGTQLLATIEARQGVPMSPRTRSKRSFSRQSELIFDIGEHTLYGTYPPKIPESNLKPLPPPTGFVVLDNPVVPEFIVVHDGLPEDSSAPNYWIPFKEYIKNIASSEIYSTWPEQTIYANVIAIISFTLNRVFTEWYRNKGYNFTITSTTAYDHKFINNRNLFEPINVVVDAIFNTFIKRPPTSRQPLLAQYCDGQKSQCPDQMTQWGSKDLGDQGYDYESILRYFYGDEIVFERAPIVSGVPVSFPGTTLQVGSSGQYVRTIQNQLNAISNSYPAVPKVIEDGIYGTDTENAVKIFQGIFGLPQSGVVDFKTWYEISRVYVATTRIASLNPLI | soluble
15 | MGHHHHHHSHMQWSKEEEAAARKKVKENSAVRVLLEEQVKYEREASKYWDTFYKIHKNKFFKDRNWLLREFPEILPVDQKPEEKARESSWDHVKTSATNRFSRMHCPTVPDEKNHYEKSSGSSEGQSKTESDFSNLDSEKHKKGPMETGLFPGSNATFRILEVGCGAGNSVFPILNTLENSPESFLYCCDFASGAVELVKSHSSYRATQCFAFVHDVCDDGLPYPFPDGILDVILLVFVLSSIHPDRTLFI | not soluble
16 | MGHHHHHHSHMSDIYQHFRKDERAFIDQALEWKRIVQEQYRMKLTDFLDPREQVILSAVTGQADVGLAFSGGYDRAERKRAILFPEYITPEESDFELQAFNVRYADKFVSVDHRSLLGALMGIGLKRQKFGDIVFSETAVQLIVSADTADFVAAQLTQAGKAAVSLEKIDLSDLNIPAVDVEIRDDTVSSLRLDAVCASMSRQSRQKSQTLVKNGLVKVNWKVVEDPSYIVAEGDMLSIRGFGRCSLTKIEGKTKKDKWRVTFERQK | not soluble
17 | MGHHHHHHSHMSGSAMQEGLSPNHLKKAKLMFFYTRYPSSNMLKTYFSDVKFNRCITSQLIKWFSNFREFYYIQMEKYARQAINDGVTSTEELSITRDCELYRALNMHYNKANDFEVPERFLEVAQITLREFFNAIIAGKDVDPSWKKAIYKVICKLDSEVPEIFKSPNCLQELLHE | soluble
18 | MGHHHHHHSHMSPVLTQHVSQPITLDEQTQKMKRHLLQDIRRSAYVYRVDCGGCNACEIEIFAAITPVFDAERFGIKVVSSPRHADILLFTGAVTRAMRMPALRAYESAPDHKICVSYGACGVGGGIFHDLYSVWGGSDTIVPIDVWIPGCPPTPAATIHGFAVALGLLQQKIHAVDYRDPTGVTMQPLWPQIPPSQRIAIEREARRLAGYRQGREICDRLLRHLSDDPTGNRVNTWLRDADDPRLNSIVQQLFRVLRGLHD | not soluble
19 | MGHHHHHHSHMSSRGHSTLPRTLMAPRMISEGDIGGIAQITSSLFLGRGSVASNRHLLQARGITCIVNATIEIPNFNWPQFEYVKVPLADMPHAPIGLYFDTVADKIHSVSRKHGATLVHCAAGVSRSATLCIAYLMKFHNVCLLEAYNWVKARRPVIRPNVGFWRQLIDYERQLFGKSTVKMVQTPYGIVPDVYEKESRHLMPYWGI | not soluble
20 | MGHHHHHHSHMTQDRPLLAVQEALKKCFPVVEEQQGLWQSALRDCQPLLSSLSNLAEQLQAAQNLRFEDVPALRAFPDLKERLRRKQLVAGDIVLDKLGERLAILLKVRDMVSSHVERVFQIYEQHADTVGIDAVLQPSAVSPSVADMLEWLQDIERHYRKSYLKRKYLLSSIQWGDLANIQALPKAWDRISKDEHQDLVQDILLNVSFFLEE | not soluble
21 | MGHHHHHHSHMTSELDIFVGNTTLIDEDVYRLWLDGYSVTDAVALRVRSGILEQTGATAAVLQSDTMDHYRTFHMLERLLHAPPKLLHQLIFQIPPSRQALLIERYYAFDEAFVREVLGKKLSKGTKKDLDDISTKTGITLKSCRRQFDNFKRVFKVVEEMRGSLVDNIQQHFLLSDRLARDYAAIVFFANNRFETGKKKLQYLSFGDFAFCAELMIQNWTLGAVGEAPTDP | not soluble
22 | MGHHHHHHSHMYAAGLGMLEPTKEPLKPLSAAEKIASIGQTATMSPDMNTCTSDQFQESLPPVQFDWSSSGLTNPLDGVDPELYELTTSKLEISTSSLKVTDAFARLMSTVEKTSTSTSRKPKREEHLSEEAIKVIAGLPDLTFMHAKVLMFPATLTPSTSSQEKADG | not soluble
23 | MGHHHHHHSHMYFFSKHPEASIQAVFSDAQMHIWALEGLSHLVAASFTEDRFGVVQTTLPAILNTLLTLQEAVDKYFKLPHASSKPPRISGSLVDTSYKTLRFAFRASLKTAIYRITTTFGEHLNAVQASAEHQKRLQQFLEFKE | soluble
24 | MGHHHHHHSHSSPEREITLVNLKKDAKYGLGFQIIGGEKMGRLDLGIFISSVAPGGPADLDGCLKPGDRLISVNSVSLEGVSHHAAIEILQNAPEDVTLVISQPKEKISKVPSTPVHLTNEMKNYMKKSSYMQDSAIDSSSKDHHWSRGTLRHISENSFGPSGGLREGSLSSQDSRTESASLSQSQVNGFFASHLGDQ | not soluble
25 | MGHHHHHHSHSTKDRKIIPLKMCFAARNLSMPDLENRLIELHSPDSRNTLILRCKDTATAHSWFVAIHTNIMALLPQVLAELNAMLGATSTAGGSKEVKHIAWLAEQAKLDGGRQQWRPVLMAVTEKDLLLYDCMPWTRDAWASPCHSYPLVATRLVHSGSGCRSPSLGSDLTFATRTGSRQGIEMHLFRVETHRDLSSWTRILVQGCHAAAEL | not soluble
26 | MGHHHHHHSHTQDKNYEDELTQVALALVEDVINYAVKIVEEERNPLKNIKWMTHGEFTVEKGLKQIDEYFSKCVSKKCWAHGVEFVERKDLIHSFLYIYYVHWSISTADLPVARISAGTYFTMKVSKTKPPDAPIVVSYVGDHQALVHRPGMVRFRENWQKNLTDAKYSFMESFPFLFNRV | not soluble
27 | MGHPETTKFHHLSTKVTISVPEEECYGSTNRTSFNGEDIEEVLEAILKSGMKLKMEKSNFGHAKIKFLGYIVLEEGIQTDPKTIKAIAKFPQPENVTDVRKFIGFALY | not soluble
